Legend:
STAT3, IL-1Ra = experiment: pSTAT3/STAT3 and systemic IL-1Ra in non-inflamed mice (ELISA MSD); type: in vivo
STAT3 phosphorylation = experiment: In vivo pSTAT3 induction after intraluminal injection or oral gavage; parameters: species or system Balb/C mice; conditions: intraluminal injection, jejunum
Procedure: In vivo studies in mice were performed where the biological activity of human IL-10 following transcytosis was assessed for its ability to stimulate the mouse IL-10 receptor and increase phosphorylation of STAT3 (pSTAT3) in cells within the Lamina propria.
An extensive amount of rhIL-10 (SEQ ID NO: 5) was trafficked through enterocytes. Additionally, there were a population of lymphocyte-like cells at the basolateral surface of enterocytes and within the Lamina propria that were pSTAT3 positive.
Entire intestines of mice were isolated and processed as a “swiss role” and localization of pSTAT3 was detected by immunofluorescence confocal microscopy (FIG. 110).

[1] = Intraluminal injection in T-cell transfer colitis model, rhIL-10 ELISA; type: in vivo, BALB/c and SCID mice
Procedure: This study was conducted to examine the potential for the carrier protein to transport rhIL-10 from the intestinal lumen into the submucosal region in inflamed intestinal tissue. The T lymphocyte (T cell) transfer model was used as it is a well-established model of induced chronic colitis in mice and presents many of the essential immunological hallmarks observed in IBD patients. Nine BALB/c mice and twelve SCID mice, including nine with the colitis-like model of inflammation, were dosed with 20 μl of test article via intraluminal injection into the distal ileum and the proximal, middle and distal colon.
PBS vehicle was administered to healthy BALB/c mice and both healthy and induced colitis SCID mice (n=3/group). In each group, two mice were terminated 10 minutes after intraluminal injections, and one was terminated 40 minutes after intraluminal injections. Intestinal tissue and serum were collected. Collected tissue was fixed, embedded, sectioned and H&E stained for histological assessment of inflammatory status. ELISA analysis to measure rhIL 10 was performed on lysates prepared from intestinal tissue and serum (FIGS. 106A-106D).

[2] = Phase 1a single ascending dose in healthy male volunteers; type: in vivo, human; conditions: 60 and 120 mg
Procedure: In part B of the study, early data was gathered on the safety and tolerability, pharmacokinetics, pharmacodynamics and early clinical response following multiple ascending doses of the IL-10 delivery construct in Ulcerative Colitis (UC) patients (Part B).
Part A consisted of a single-ascending dose (SAD) escalation in healthy male volunteers. Six cohorts consisting of orally administered single ascending doses were conducted. At each dose level, 6 subjects were enrolled, randomized 2:4 to receive a single dose of placebo or the IL-10 delivery construct on day 1. The doses selected were 1 mg, 3 mg, 10 mg, 30 mg, 60 mg, and 120 mg.
Pre-clinical models have identified peripheral IL-1Ra production as a marker of IL-10 engagement to IL-10R in mucosal lymphocytes. To determine if the IL-10 delivery construct was actively transported across the epithelial cell lining into the Lamina propria and able to interact with lymphocytes, the levels of IL-1Ra induction was assessed.

circulating cytokines = conditions: 8.45 mg/kg, Luminex
[3] = system: T lymphocytes and macrophages; experiment: Cellular target in Lamina propria (CD3, F4/80, pSTAT3) after oral gavage; type: in vivo, mouse
[4] = Single oral capsule dose in NHP: plasma total IL-10; type: in vivo, Macaca fascicularis
Source text: IL-10 delivery constructs (SEQ ID NO: 5) and caffeine were filled by weight into size-1 Capsugel V-Cap Hydroxypropyl Methylcellulose (HPMC) capsules, for oral administration. The capsules were then successively coated in a pan spray coater with three layers of polymers. The first and third layer were thin coatings of HPMC, the first to seal the crease where the capsule shells come together, and the third to minimize sticking of the capsules to each other. The second coating layer was comprised of a 50:50 mixture of Eudragit® (Evonik Industries AG) enteric acrylic polymers FS 30 D and L 30 D-55, designed to dissolve and allow the capsule to open at pH 6.5.
The MSD Small Spot IL-10 plate was washed 3 times with PBST before use. Standards were prepared in Diluent 2 (MSD Cat No R51BB), and samples diluted 2-fold in Diluent 2. Standards and diluted samples were added to the assay plate and the plate incubated for 2 hours at room temperature with shaking. The plate was washed 3 times with PBST and 1×SULFO TAG anti-huIL-10. Antibody was added to the plate before incubation for 1 hour at room temperature with shaking. Following a wash step, 2×MSD Read buffer was added to the wells of the plate and the plate is read in the MSD Sector Imager 600 plate reader. The lower limit of detection of each analyte is defined as 2.5 standard deviation above background.
Plasma samples were analyzed for Total IL-10, IL-1Ra, caffeine content and a panel of proinflammatory cytokines. Assay LLOQs were: total IL-10=0.3 pg/mL; IL-1Ra=78 pg/mL; and caffeine=[…]. Plasma concentration of IL-10 can refer to the concentration in plasma of both naturally occurring IL-10 and IL-10 appended to a carrier (for example, IL-10 in an IL-10 delivery construct described herein).
IL-10 delivery construct dosing at multiple fixed doses in non-naïve adult male Macaca fascicularis was conducted by Valley Biosystems (West Sacramento, Calif.). […] Dosing groups are described in TABLE 45.
Animals were fasted until after the 3 hour blood sample collection, when food was given. For dosing, the animals were manually restrained and a bite block placed between the jaws. A pill gun containing the dosing capsule was inserted into the back of the oral cavity and the capsule released. Up to 4 capsules were administered consecutively and a small amount of water given to induce swallowing. Once the administration of the dose was confirmed, the bite block was removed and the head released.
Blood samples were collected in K2EDTA tubes from each animal pre-dose and at 0.5, 1, 2, 3, 4, 5, 6, 7, 8, and 24 hours post-dose. Animals were returned to home cages following the 2-hour sample collection. Following physical restraint, blood samples were collected via direct venous puncture using a cephalic, femoral or saphenous vein, which were processed to plasma and stored frozen at −60° C. until shipment.

B1: IL-10 delivery construct: recombinant homodimeric fusion protein: N-terminal methionine, cholix386 domain, polyGlySer spacer, recombinant human IL-10 (protein)
chain: MVEEALNIFDECRSPCSLTPEPGKPIQSKLSIPSDVVLDEGVLYYSMTINDEQNDIKDEDKGESIITIGEFATVRATRHYVNQDAPFGVIHLDITTENGTKTYSYNRKEGEFAINWLVPIGEDSPASIKISVDELDQQRNIIEVPKLYSIDLDNQTLEQWKTQGNVSFSVTRPEHNIAISWPSVSYKAAQKEGSRHKRWAHWHTGLALCWLVPMDAIYNYITQQNCTLGDNWFGGSYETVAGTPKVITVKQGIEQKPVEQRIHFSKGNAMSALAAHRVCGVPLETLARSRKPRDLTDDLSCAYQAQNIVSLFVATRILFSHLDSVFTLNLDEQEPEVAERLSDLRRINENNPGMVTQVLTVARQIYNDYVTHHPGLTPEQTSAGAQAGGGGSGGGGSGGGGSPGQGTQSENSCTHFPGNLPNMLRDLRDAFSRVKTFFQMKDQLDNLLLKESLLEDFKGYLGCQALSEMIQFYLEEVMPQAENQDPDIKAHVNSLGENLKTLRLRLRRCHRFLPCENKSKAVEQVKNAFNKLQEKGIYKAMSEFDIFINYIEAYMTMKIRN
modifications: homodimer
What does the source list for B1?
increase in ratio of pSTAT3 to total STAT3 (STAT3, IL-1Ra; construct 1 mg/kg, rhIL-10 0.9 mg/kg (equimolar), non-inflamed colon tissue): approximately 50%; increase of systemic IL-1Ra (STAT3, IL-1Ra; construct 10 mg/kg, rhIL-10 3 mg/kg (equimolar)): about 3 fold; phosphorylation of STAT3 in cells within the Lamina propria (STAT3 phosphorylation): increased phosphorylation of STAT3; rhIL-10 in serum of healthy animals ([1]; 159 pmoles intraluminal): moderately high; rhIL-10 in serum of inflamed animals ([1]; 159 pmoles intraluminal): minimal amounts; rhIL-10 levels in inflamed tissue vs rhIL-10 alone ([1]; 159 pmoles, 10 minutes): approximately 10 fold higher; rhIL-10 uptake in normal intestinal tissues vs rhIL-10 alone ([1]; 159 pmoles, 10 minutes): two- to five-fold higher; IL-1Ra induction at high dose [2]: loss of immunomodulatory activity; reduction of plasma IL-6 vs Vehicle (circulating cytokines): 33%; reduction of plasma IL-23 vs Vehicle (circulating cytokines): 73%; CD3+ cells co-localizing with pSTAT3 ([3]; 40 min after oral gavage): moderate proportion; F4/80 (macrophage) co-localization with pSTAT3 ([3]; after oral gavage): extensive co-localization with pSTAT3; plasma total IL-10 Tmax ([4]; 1 mg): 4 h; plasma total IL-10 Tmax ([4]; 4 mg): 3 h; plasma total IL-10 Tmax ([4]; 20.5 mg): 2 hours post dose; plasma total IL-10 Tmax ([4]; 82 mg): 2 hours post dose; plasma total IL-10 Cmax ([4]; 82 mg (4×20.5 mg capsules), oral): 1.34 pg/mL

Source: US11466067B2 (priority 2019, dated 2022)
